The source of these data is PMC10279526, “Structural basis of centromeric cohesion protection” (Nature Structural & Molecular Biology, 2023).

Non-standard residues stand in square brackets, D forms with d. No end group written: not given here. pT = C[C@@H](OP(=O)(O)O)[C@H](N)C(=O)O

The target in the assay is T1, SA2–SCC1 complex (SA2 amino acid residues 80–1060 with SCC1 amino acid residues 281–420) (UniProt Q8N3U4 80-1060; O60216 281-420).
T1 construct: SA2 (STAG2), cohesin subunit, residues 80-1060; SCC1 (RAD21, Mcd1), cohesin subunit, residues 281-420; also called cohesin subcomplex SA2–SCC1; CES
T1 sequence (looked up) 1: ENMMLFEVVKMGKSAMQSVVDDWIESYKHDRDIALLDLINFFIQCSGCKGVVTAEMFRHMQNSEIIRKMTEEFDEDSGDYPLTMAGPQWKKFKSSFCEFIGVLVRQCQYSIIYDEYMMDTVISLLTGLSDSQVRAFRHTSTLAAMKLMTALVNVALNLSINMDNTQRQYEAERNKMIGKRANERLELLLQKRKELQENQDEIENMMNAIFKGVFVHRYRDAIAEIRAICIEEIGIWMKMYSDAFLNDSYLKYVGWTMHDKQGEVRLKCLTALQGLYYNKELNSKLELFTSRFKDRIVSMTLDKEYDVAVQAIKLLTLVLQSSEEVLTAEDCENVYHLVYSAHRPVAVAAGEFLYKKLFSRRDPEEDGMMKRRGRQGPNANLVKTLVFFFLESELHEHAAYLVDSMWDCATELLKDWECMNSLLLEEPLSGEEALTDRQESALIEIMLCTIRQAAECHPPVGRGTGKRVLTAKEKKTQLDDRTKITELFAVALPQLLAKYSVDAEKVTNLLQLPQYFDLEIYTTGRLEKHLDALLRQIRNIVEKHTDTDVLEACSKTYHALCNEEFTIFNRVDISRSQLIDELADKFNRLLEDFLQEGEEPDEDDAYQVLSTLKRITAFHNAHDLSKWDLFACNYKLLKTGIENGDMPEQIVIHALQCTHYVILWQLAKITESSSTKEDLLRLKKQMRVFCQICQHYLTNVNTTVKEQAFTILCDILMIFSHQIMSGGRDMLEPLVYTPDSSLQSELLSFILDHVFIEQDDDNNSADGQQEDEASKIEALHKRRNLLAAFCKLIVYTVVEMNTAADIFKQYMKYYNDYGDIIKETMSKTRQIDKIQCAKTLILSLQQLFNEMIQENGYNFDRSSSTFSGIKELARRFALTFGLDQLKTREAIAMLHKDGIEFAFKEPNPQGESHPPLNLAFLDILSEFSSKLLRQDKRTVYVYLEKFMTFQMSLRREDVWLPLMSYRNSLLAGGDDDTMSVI
T1 sequence (looked up) 2: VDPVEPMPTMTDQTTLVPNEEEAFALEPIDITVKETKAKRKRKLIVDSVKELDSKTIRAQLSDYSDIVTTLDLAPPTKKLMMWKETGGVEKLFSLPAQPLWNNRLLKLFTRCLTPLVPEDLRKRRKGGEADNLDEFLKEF
Put plainly: ITC; performed as described previously (ref. 21); data analysed with Origin 7.0; SGO1 peptides with SA2–SCC1. Conditions: both partners purified. For orientation: ITC needs no label: the signal is the heat of the interaction.

In general, Kd refers to the free concentration of one partner at which half of the binding sites on the other are occupied at equilibrium, for simple one-to-one binding. A low value points to a tighter complex.

B1: SGO1 peptide spanning amino acids 331–341 (SNDAYNFNLEE) (peptide)
peptide: SNDAYNFNLEE
notes: Shugoshin 1 (SGO1), human, residues 331-341 with the YxF motif; also called SGO1 331–341; nonphosphorylated SGO1 peptide
B1 returned a Kd of 13.5 ± 1.4 µM.

B2: SGO1 peptide spanning amino acids 331–349 containing phosphorylated pT346 (SNDAYNFNLEEGVHLpTPFR) (peptide)
peptide: SNDAYNFNLEEGVHL[pT]PFR
notes: Shugoshin 1 (SGO1), human, residues 331-349, T346 phosphorylated; also called T346-phosphorylated SGO1 fragment; SGO1 331–349 pT346
For the molecule B2, the Kd turned out to be 2.3 ± 0.4 µM.
